What all share (experiment): two-hybrid library CCNG1;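 further: natural log of median RNA to DNA barcode read ratio; higher means stronger binding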
The target of one assay is T1, 4H3129-bA.
T1 chain: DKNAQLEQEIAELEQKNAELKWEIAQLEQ

The next assay addresses T2, 4H3172-bA.
T2 chain: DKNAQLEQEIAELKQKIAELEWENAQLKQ

In the next assay the target is T3, 4H3414-bA.
T3 chain: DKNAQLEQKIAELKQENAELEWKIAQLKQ

In a further assay the target is T4, 4H3631-bA.
T4 chain: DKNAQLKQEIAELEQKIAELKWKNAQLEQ

A further assay deals with T5, 4H3638-bA.
T5 chain: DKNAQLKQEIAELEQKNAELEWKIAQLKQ

Another assay addresses T6, 4H3817-bA.
T6 chain: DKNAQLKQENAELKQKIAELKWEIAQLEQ

A further assay has as its target T7, 4H3974-bA.
T7 chain: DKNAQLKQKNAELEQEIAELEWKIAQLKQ

The next assay has as its target T8, 4H570-bA.
T8 chain: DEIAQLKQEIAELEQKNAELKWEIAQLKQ

For a further assay, the target named is T9, 4H584-bA.
T9 chain: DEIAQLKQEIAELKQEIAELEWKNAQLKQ

The target of a further assay is T10, 4H619-bA.
T10 chain: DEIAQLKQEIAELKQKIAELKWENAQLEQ

The target in a further assay is T11, 4H850-bA.
T11 chain: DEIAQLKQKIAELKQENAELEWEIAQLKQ

The target in a further assay is T12, 4H906-bA.
T12 chain: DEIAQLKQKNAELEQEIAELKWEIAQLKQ

In a further assay the target is T13, P11A.
T13 chain: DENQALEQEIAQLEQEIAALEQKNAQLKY

A further assay has as its target T14, P3mS.
T14 chain: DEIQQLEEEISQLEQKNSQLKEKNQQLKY

The next assay has as its target T15, P5mS.
T15 chain: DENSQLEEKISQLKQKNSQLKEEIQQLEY

For the next assay, the target named is T16, P6mS.
T16 chain: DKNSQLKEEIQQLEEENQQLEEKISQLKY

A further assay concerns the target T17, P7mS.
T17 chain: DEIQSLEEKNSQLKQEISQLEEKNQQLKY

The target in another assay is T18, P8mS.
T18 chain: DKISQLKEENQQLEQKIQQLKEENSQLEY

Another assay addresses T19, P9mS.
T19 chain: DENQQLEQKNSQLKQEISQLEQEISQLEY

The target in another assay is T20, 4H2931-bA.
T20 chain: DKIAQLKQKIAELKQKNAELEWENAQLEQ

In the next assay the target is T21, 4H3041-bA.
T21 chain: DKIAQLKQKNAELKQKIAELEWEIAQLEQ

The next assay has as its target T22, 4H3297-bA.
T22 chain: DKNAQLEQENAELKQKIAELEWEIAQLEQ

Another assay concerns the target T23, 4H3364-bA.
T23 chain: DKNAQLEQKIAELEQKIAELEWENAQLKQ

The next assay addresses T24, 4H3381-bA.
T24 chain: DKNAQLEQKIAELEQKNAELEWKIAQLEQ

The target in the next assay is T25, 4H3381-bH.
T25 chain: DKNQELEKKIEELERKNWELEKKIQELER

The next assay has as its target T26, 4H349-bA.
T26 chain: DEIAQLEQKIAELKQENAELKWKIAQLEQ

A further assay has as its target T27, 4H3497-bA.
T27 chain: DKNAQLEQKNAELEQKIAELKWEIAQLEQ

The target in the next assay is T28, 4H56-bA.
T28 chain: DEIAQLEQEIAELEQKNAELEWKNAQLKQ

In a further assay the target is T29, 4H730-bA.
T29 chain: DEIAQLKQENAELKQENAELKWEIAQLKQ

Another assay concerns the target T30, 4H796-bA.
T30 chain: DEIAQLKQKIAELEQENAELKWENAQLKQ

In another assay the target is T31, 4H932-bA.
T31 chain: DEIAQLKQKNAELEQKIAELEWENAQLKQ

Another assay has as its target T32, 4H949-bA.
T32 chain: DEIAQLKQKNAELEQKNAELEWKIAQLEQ

As to DKNAQLEQEIAELEQKNAELKWEIAQLEQ [4H3129-bA], the interaction score was -0.78 with 4H3129-bA; -1.38 with 4H3172-bA; 2.61 in the assay with 4H3414-bA; -0.762 with 4H3631-bA; 0 with 4H3638-bA; -0.661 with 4H3817-bA. The interaction score in the assay with 4H3974-bA is -0.932; in the assay with 4H570-bA it was -1.13; with 4H584-bA, -1.75; with 4H619-bA, -1.59; with 4H850-bA, 0.0228; with 4H906-bA, -0.839. The molecule further registered an interaction score in the assay with P11A of 0.0953.
On to DEIQQLEEEISQLEQKNSQLKEKNQQLKY [P3mS], for which the interaction score in the assay with P3mS was -1.02; with P5mS, -0.969; with P6mS, -0.88; with P7mS, -1.59; with P8mS, -1.66; with P9mS, -0.496.
As for DKIAQLKQKIAELKQKNAELEWENAQLEQ [4H2931-bA], the interaction score with 4H2931-bA was -0.604; with 4H3041-bA, -0.32; with 4H3297-bA, -0.644; in the assay with 4H3364-bA, -1.11; in the assay with 4H3381-bA, -1.36; in the assay with 4H3381-bH, -0.208. Moreover, the interaction score was -1.08 in the assay with 4H349-bA; -1.04 with 4H3497-bA; 0.684 with 4H56-bA; -1.14 in the assay with 4H730-bA; -0.693 in the assay with 4H796-bA; -1.36 with 4H932-bA. Besides, the interaction score was -1.37 in the assay with 4H949-bA and 1.31 in the assay with P11A.

The values are drawn from PMC10397247.
